Laboratory results reported in PMC6733452.

What was measured:
Assay in all cases: cross-linking + ELISA
TcpP-K102E (V. cholerae) = TcpP-K102E (V. cholerae) (UniProt P29485)
TcpP-N99D (V. cholerae) = TcpP-N99D (V. cholerae) (UniProt P29485)
[1] = target: TcpP-HSV (wild-type, from pEK41) (V. cholerae) (UniProt P29485)

## ToxR (wild-type, expressed from the chromosomal toxR locus) (from UniProt P15795 1-294) (natural protein)
TcpP-K102E (V. cholerae)
  percent reduction in ToxR interaction relative to wild-type TcpP-HSV: 50%
TcpP-N99D (V. cholerae)
  percent reduction in ToxR interaction relative to wild-type TcpP-HSV: 50%

## ToxR-L107A (chromosomally expressed) (from UniProt P15795 1-294) (natural protein)
[1]
  percent reduction in TcpP interaction relative to wild-type ToxR: 70%

## ToxR-T91A (chromosomally expressed) (from UniProt P15795 1-294) (natural protein)
[1]
  percent reduction in TcpP interaction relative to wild-type ToxR: 45%

## ToxR-V97A (chromosomally expressed) (from UniProt P15795 1-294) (natural protein)
[1]
  percent defect in TcpP interaction relative to wild-type ToxR: > 60%

## ToxR-Y96A (chromosomally expressed) (from UniProt P15795 1-294) (natural protein)
[1]
  percent reduction in TcpP interaction relative to wild-type ToxR: 40%
